# Target: GFP-MG53 (mouse) (UniProt Q1XH17)
# Assay: cell-based or functional assay
# UniProt Q1XH17, sequence (Q1XH17 whole entry): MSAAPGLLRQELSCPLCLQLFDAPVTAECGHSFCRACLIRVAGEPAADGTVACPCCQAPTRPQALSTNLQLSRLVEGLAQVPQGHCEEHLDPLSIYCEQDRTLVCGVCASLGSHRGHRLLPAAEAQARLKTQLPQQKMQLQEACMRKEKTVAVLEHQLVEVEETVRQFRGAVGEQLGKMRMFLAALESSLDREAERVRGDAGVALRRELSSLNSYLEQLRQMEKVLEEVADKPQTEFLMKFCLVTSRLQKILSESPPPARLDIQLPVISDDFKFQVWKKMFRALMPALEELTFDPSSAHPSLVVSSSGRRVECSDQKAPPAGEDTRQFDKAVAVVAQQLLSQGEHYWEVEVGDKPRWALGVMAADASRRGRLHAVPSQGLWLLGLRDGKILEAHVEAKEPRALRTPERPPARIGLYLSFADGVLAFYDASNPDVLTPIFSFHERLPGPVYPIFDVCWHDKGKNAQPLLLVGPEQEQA
substance,measurement,value
caveolin-3 overexpressed from pcDNA-Cav-3,reduction in the appearance of filapodia-like structures in C2C12 myoblasts transfected with caveolin-3 and GFP-MG53 (about 10:1),82%

# — patent US20130123340A1
